# Results: patent US20240392013A1, “IL1RAP ANTIBODIES AND USES THEREOF” (STELEXIS THERAPEUTICS, LLC, priority 2021, published 2024)
# T1: IL1R1/IL1β/IL1RAP complex (Homo sapiens, UniProt Q9NPH3)
# T1 construct: extracellular domain Fc-tagged, Cat #10121-H02H; Fc; purchased Sino Biological 10121-H02H (IL1RAP-Fc); 10126-H08H (IL1R1-His); 10139-HNAE (IL1β)
# T1 sequence (Q9NPH3 21-367 limits assumed): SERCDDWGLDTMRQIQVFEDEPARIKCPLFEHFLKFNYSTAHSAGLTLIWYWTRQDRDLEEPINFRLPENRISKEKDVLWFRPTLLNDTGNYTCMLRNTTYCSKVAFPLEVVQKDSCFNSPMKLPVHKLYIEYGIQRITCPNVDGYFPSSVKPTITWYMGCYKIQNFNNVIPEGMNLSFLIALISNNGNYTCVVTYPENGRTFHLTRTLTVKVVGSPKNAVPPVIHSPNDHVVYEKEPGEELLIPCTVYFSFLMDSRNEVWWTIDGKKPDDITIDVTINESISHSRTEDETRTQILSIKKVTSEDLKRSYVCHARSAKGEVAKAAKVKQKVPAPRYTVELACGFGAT
# T2: hIL1RAP (Homo sapiens, UniProt Q9NPH3)
# T2 sequence (Q9NPH3 21-367 limits assumed): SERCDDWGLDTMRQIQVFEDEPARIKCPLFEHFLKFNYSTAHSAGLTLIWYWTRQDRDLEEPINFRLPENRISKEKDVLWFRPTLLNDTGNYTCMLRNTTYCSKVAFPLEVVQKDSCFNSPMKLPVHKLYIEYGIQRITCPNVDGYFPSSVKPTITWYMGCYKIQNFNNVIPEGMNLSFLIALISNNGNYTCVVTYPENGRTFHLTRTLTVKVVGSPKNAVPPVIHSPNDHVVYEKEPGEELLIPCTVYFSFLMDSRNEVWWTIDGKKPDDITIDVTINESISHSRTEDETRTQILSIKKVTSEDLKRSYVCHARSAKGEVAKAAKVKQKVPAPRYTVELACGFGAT
# What was measured:
# cyIL1RAP = assay: Kinetics of IL1RAP mAbs by Octet, cynomolgus IL1RAP; format: binding
# Method: (§1) Antibodies were diluted in kinetics buffer (0.1% BSA, 0.02% Tween-20 and 0.05% NaN3 in PBS) and loaded onto 16 channel anti-mouse IgG Fc capture sensors (AMC, Cat #2001073; Sartorius, Göttingen, Germany). Human, huIL1RAP-His (Sino Biological, lot: MB08MA1301), and monkey, cyIL1RAP-His (Lake Pharma, NY, USA; lot:16205819371) proteins were titrated starting from the highest concentration of 100 nM and followed by 50 nM and 25 nM. Purified antibodies were loaded at 5 μg/ml in kinetics buffer. The experimental parameters selected to determine the kinetic constants were Baseline for 60 s, Loading of antibody to sensor for 180 s, Association of analyte to antibody for 120 s, Dissociation for 1200 s and Regeneration in 10 mM Glycine pH 1.7 for 4×30 s.
# (§2) Regeneration cycle tracking was selected for 12 cycles. Binding to human and cynomolgus IL1RAP was measured and KD (M) kinetics were calculated. Also, the disassociation rate (Kdis) (1/s) and association rate (Kon) (1/Ms) kinetics were calculated (data not shown).
# [1] = target: T1, IL1R1/IL1β/IL1RAP complex; assay: Blocking of IL1R1/IL1β/IL1RAP complex formation, cell-free ELISA; format: biochemical; conditions: FIG. 4
# Method: High-binding 96-well plates were coated with IL1RAP-Fc protein (Sino Biological, Cat #10121-H02H) at concentration of 4 µg/ml and incubated overnight at 4° C. After 3× washes with 0.05% Tween-20 in PBS, pH 7.5, plates were blocked with 1% BSA in PBS for 1 hour at room temperature. Following, wells were incubated with each antibody at concentration of 50 nM for 1 hour at room temperature. Plates were then washed 3× and wells were incubated with premixed complex of IL1R1-His protein (Sino Biological, Cat #10126-H08H) at concentration of […] and IL1β cytokine (Sino Biological, Cat #10139-HNAE) at concentration of […] 1 hour at room temperature. IL1R1/IL1β complex was preincubated in assay buffer (1% BSA in PBS, pH 7.5) for 20 min at room temperature. After 3× washes, plates were incubated with anti-His HRP detection antibody (Medna, Cat #D8212, […]) for 1 hour at room temperature. Following 5× washes, SuperPico chemiluminescent substrate was applied to wells and signal was read on Spectramax M5.
# [2] = tested on: patient-derived AML samples; assay: Cell viability of patient-derived AML samples, CellTiter-Glo; format: cell-based, human; conditions: 15 patient-derived AML samples; 0.1-100 nM, 6 days
# Method: Primary patient-derived AML cells collected using leukapheresis or peripheral blood draw were selected based on expression levels of IL1RAP, IL1R1 and IL1RL1. On study day 0, cell viability was calculated, and cells were seeded at a density of 20,000 viable cells/well in 96-well plates. Cells were treated on Day 0 with IL1RAP monoclonal antibodies at a concentration of 100 nM followed by 5-fold serial dilutions. Cytarabine treatment (5 μM) was used as a positive control. Plates were kept at 37° C./5% CO2 in humified incubator and media was not changed during the duration of the assay. On Day 6, plates were removed from incubator and equilibrated to room temperature for up to 30 minutes. Then CellTiter-Glo was added to wells (100 μl) and plates were mixed for 2 minutes on plate rocker, followed by 10 minutes incubation at room temperature. Luminescent signal was recorded using Tecan plate reader and IC50s were calculated.
# healthy control samples = assay: Clonogenic capacity of healthy control samples; format: cell-based, human; conditions: 333 nM, two weeks
# Method: AML patient samples or healthy control samples (4000 cells) were washed and resuspended in 30 μl Iscove's Modified Dulbecco's Medium (IMDM) media supplemented with 2% FBS. Cells […] were mixed with 3 ml methylcellulose (MthoCult H4034 Optimum) supplemented with pen/strep or primocin (100 μg/ml) and IL1RAP antibodies (333 nM) and 1 ml were seeded in 35 mm dishes in duplicates. The dishes were incubated at 37° C./5% CO2 in humidified incubator for 14-16 days. Colonies were counted using inverted microscope.
# [3] = tested on: IL36γ-induced NFκB activity; assay: HEKBlue-IL36 cell-based reporter assay; conditions: HEKBlue-IL36, FIG. 22
# Method: Inhibition by STLX2012 was measured by the HEKBlue-IL36 cell-based reporter assay. The HEK-Blue IL36 (Invivogen, Cat #hil36r-hkb) cell line was used to monitor NFκB activity upon stimulation with IL36γ cytokine. In this cell line, the secreted embryonic alkaline phosphatase reporter gene (SEAP) is inducibly expressed under the control of IFN-β minimal promoter fused to NFκB/AP-1. Specificity to IL36γ cytokine was achieved by blockage of TNF-α and IL1 response. Cells are maintained in the presence of zeocin (100 μg/ml) and blasticidin (10 μg/ml).
# hIL1RAP = target: T2, hIL1RAP; assay: Kinetics of IL1RAP mAbs by Octet, human IL1RAP; format: binding; design: extracellular domain His-tagged, Cat #10121-H08H; His; purchased Sino Biological lot MB08MA1301 (catalogue number not given)
# Method: as §1, §2
hIL1RAP kdis(1/s) (hIL1RAP) [s⁻¹],hIL1RAP kon(1/Ms) (hIL1RAP) [M⁻¹ s⁻¹],Molecule,cyIL1RAP kdis(1/s) (cyIL1RAP) [s⁻¹],cyIL1RAP kon(1/Ms) (cyIL1RAP) [M⁻¹ s⁻¹],Blocking of IL1R1/IL1β/IL1RAP complex formation [1],Inhibition of viability [2],Effect on clonogenic capacity of healthy control samples (healthy control samples),Inhibition of IL36γ-induced NFκB activity [3]
0.000287,307700,"74804_12A21B: anti-IL1RAP mAb; VH SEQ ID NO:6, VL SEQ ID NO:23, κ light chain (antibody, V domains shown, 74804_12A21B VH and 74804_29D13A VH; 74804_12A21B VL) VH: QVQLLQSGAEVKKPGSSVKVSCKASGGTFSIYAIDWVRQAPGQGLEWMGGIIPIFGTANSAQKFQGRVTITADKSTSTAYMELSSLRSEDTAVYYCARNGATSDAFDMWGQGTMVTVSS VL: EIVLTQSPGTLSLSPGERATLSCRASLSVSSNYLAWFQQRPGQAPRLLIHGVSRRATGIPDRFSGSGSGTDFTLTISRLEPEDFAVYYCQQYGSSPLTFGGGTKVEIK",0.000441,342200,block IL1R1/IL1β/IL1RAP complex formation in a dose dependent manner,inhibition of viability of patient-derived AML samples,did not affect the clonogenic capacity of healthy control samples,inhibition of the IL36γ-induced NFκB activity in a dose-dependent manner
0.000149,350200,"74804_43F04A: anti-IL1RAP mAb; VH SEQ ID NO:7, VL SEQ ID NO:22, κ light chain (antibody, V domains shown, 74804_43F04A VH; 74804_07K10A VL, 74804_29D13A VL and 74804_43F04A VL) VH: QVQLLQSGAEVKKPGSSVKVSCKASGGTFSIYAIDWVRQAPGQGLEWMGGIIPIFGTENSAQNFQGRITITADKSTNTAYMELSSLRSEDTAVYYCARNGATSDAFDIWGQGTMVTVFS VL: EIVLTQSPGTLSLSPGERATLSCRASLSVSSNYLAWFQQRPGQAPRLLIYGVSRRATGIPDRFSGSGSGTDFTLTISRLEPEDFAVYYCQQYGSSPLTFGGGTKVEIK",0.0004,412100,block IL1R1/IL1β/IL1RAP complex formation in a dose dependent manner,–,–,–
